Experimental data reported in publication PMC2976697.

Biological target: Helicobacter pylori CCUG 17874 L-asparaginase (Helicobacter pylori CCUG 17874) (UniProt O25424)
Assay: non-reducing SDS-PAGE with LC-MS/MS of the band; active Superdex 75 fractions of BCF, mixed with non-reducing SDS buffer, 10-12% SDS-PAGE; band at about 121 kDa cut out, trypsin digested and identified by LC-MS/MS

For “Helicobacter pylori CCUG 17874 L-asparaginase (from UniProt O25424 1-330) (enzyme)”, the stoichiometry N was 4.
